Assay [1] deals with T1, human CDCP1 on tumor cells (human, UniProt Q9H5V8 30-836).
T1 construct: whole, on cells; cell line is named under assay or readout
T1 sequence (looked up): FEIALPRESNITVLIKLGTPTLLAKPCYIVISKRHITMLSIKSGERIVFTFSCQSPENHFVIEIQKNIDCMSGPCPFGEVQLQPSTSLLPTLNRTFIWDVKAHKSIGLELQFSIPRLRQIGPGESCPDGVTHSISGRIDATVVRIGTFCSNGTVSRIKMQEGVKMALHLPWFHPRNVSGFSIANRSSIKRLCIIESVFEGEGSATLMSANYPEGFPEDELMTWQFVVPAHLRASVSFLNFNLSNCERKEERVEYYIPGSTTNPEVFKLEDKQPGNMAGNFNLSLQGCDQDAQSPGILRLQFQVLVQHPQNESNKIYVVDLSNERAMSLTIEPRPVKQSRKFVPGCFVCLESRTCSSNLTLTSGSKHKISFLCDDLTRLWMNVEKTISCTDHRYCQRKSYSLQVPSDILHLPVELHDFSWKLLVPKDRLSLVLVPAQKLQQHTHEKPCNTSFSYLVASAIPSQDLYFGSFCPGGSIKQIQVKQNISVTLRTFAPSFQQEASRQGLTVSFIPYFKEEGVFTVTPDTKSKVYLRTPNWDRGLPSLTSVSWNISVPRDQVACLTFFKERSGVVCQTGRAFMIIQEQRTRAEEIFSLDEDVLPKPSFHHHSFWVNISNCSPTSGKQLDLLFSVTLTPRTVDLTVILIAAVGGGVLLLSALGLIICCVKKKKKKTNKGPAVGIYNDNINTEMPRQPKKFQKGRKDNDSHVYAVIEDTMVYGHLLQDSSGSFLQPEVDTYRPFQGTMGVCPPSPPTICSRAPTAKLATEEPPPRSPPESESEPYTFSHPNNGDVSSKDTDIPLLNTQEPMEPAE
Briefly: flow cytometry, PC3 cells. The protocol: Flow cytometry was used to detect the binding capacity of antibody to tumor cells. […] 2.0×10⁴ tumor cells were added per well, respectively, and 50 μL (PBS+2% FBS) were added, and after blocking at room temperature with an Fe blocker (Human TruStain FcX™, Biolegend, 422302) for 10 mins, an anti-CDCP1 murine monoclonal antibody at a final concentration of 200 nM was added. The obtained mixture was subjected to a 3-fold serial dilution across 8 concentration points, and incubated at 4° C. for 30 mins, and then incubated with a secondary antibody (PE anti-human IgG Fc Antibody, Biolegend, 410708), detection was performed using a flow cytometer.

In assay [2] the target is T1, human CDCP1 on tumor cells. The assay is described as follows: flow cytometry, MDA-MB-231 cells. The protocol: Referring to the method of Example 4, MDA-MB-231 cells were taken and subjected to digestion with 5 mM EDTA, 2×10⁴ tumor cells were added respectively per well, and 50 μL (PBS+2% FBS) were added; after blocking at room temperature with Fc blocker for 10 mins, an anti-CDCP1 humanized antibody at a final concentration of 200 nM was added. The obtained mixture was subjected to a 3-fold serial dilution across 8 concentration points, incubated at 4° C. for 30 mins, centrifuged and washed, and then a secondary antibody (PE anti-human IgG Fc Antibody, Biolegend, 410708) was added, then detection was performed using a flow cytometer. Geo-MFI (geometric mean fluorescence signal value) was used as the preliminary signal of antibody-cell binding, curve fitting was performed using graphpad, and the binding capacity of antibody to cells was calculated.
On the technique in general: A flow cytometer gives signals particle by particle.

A further assay has as its target T2, MsCDCP1 (mouse, UniProt Q5U462 30-666).
T2 construct: extracellular domain; also called mouse CDCP1; not shown: Fc or his tag
T2 sequence (looked up): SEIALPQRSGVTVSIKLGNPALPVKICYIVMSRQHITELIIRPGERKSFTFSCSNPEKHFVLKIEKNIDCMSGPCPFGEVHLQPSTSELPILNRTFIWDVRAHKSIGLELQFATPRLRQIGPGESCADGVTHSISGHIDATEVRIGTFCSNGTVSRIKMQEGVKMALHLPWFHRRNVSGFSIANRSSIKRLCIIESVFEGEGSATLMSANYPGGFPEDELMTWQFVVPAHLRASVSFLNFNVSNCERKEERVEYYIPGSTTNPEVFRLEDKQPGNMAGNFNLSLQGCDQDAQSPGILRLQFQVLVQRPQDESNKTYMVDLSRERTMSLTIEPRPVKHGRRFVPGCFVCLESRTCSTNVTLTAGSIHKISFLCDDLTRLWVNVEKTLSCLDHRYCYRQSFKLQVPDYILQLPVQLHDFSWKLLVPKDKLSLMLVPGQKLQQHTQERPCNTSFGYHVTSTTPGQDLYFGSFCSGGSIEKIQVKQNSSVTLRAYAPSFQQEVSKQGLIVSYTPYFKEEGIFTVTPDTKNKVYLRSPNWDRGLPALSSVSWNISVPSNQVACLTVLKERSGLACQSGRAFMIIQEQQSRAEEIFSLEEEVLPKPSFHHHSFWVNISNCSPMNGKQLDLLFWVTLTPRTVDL
Briefly: SPR (Caterra), antigen immobilized. How it is done:
The humanized anti-CDCP1 antibodies obtained from Example 11 were subjected to gene cloning, constructed into pTT5 expression vector for a small amount of expression in CHO cells (Expi-CHOS: Gibco A29127), and purified with an Fc affinity column (AT Protein A Diamond Plus. No. AA402312). Antibody purity was analyzed by HPLC and determined by Nanodrop. High-throughput affinity assay was carried out for a small amount of antibodies by Caterra.
Further, Partial anti-CDCP1 humanized antibodies were selected for expression, and then the affinity of the antibodies to the antigens Hu-CDCP1-A, Hu-CDCP1-B, Cyno-CDCP1, and Ms-CDCP1 was detected according to the above affinity detection method.

B1: G10F6 (antibody, V domains shown)
VH: EVKLVESGPGILQPSQTLSLTCSFSGFSLSTSGMGVSWVRQPSGKGLEWLAHIYWDDDKRYNPSLKGRLTISKDTPRNQVFLEITSVDTTDTATYYCARVPGNWDEDAMDYWGQGTTVTVSS
VL: DIQMTQSPLSLPVSLGDQASISCRSSQNIVHTNGNTYLEWYLQKVGQSPKLLIYKVSNRFSGVPDRFSGSGSGTDFTLKISRVEAEDLGVYYCFQGSHVPYTFGGGTKLEIK
notes: murine hybridoma mAb
Take B1: the EC50 – broadly, the concentration giving half of the maximal effect – in assay [1] was 0.23 nM.

B2: 14A10C5 (antibody, V domains shown)
VH: EVKLVESGPGILQPSQTLSLTCSFSGFSLSTSGMGVSWIRQPSGKGLEWLAHIYWDDEKRYNPSLKSRLTISKDTSSNQVFLKITSVDTADTATYYCAREGSANWEAMDYWGQGTTVTVSS
VL: DIVMTQAALSLPVSLGDQASISCRSSQNIVYTNGITYLEWYLQKPGQSPKLLIYKVSNRFSGVPDRFSGSGSATDFTLKISRVEAEDLGVYYCFQSSHVPWTFGGGTKLEIK
notes: murine hybridoma mAb; also called 14A10CS
For B2, the midpoint of the response in assay [1], the EC50, lay at 0.1 nM. Compared with the last molecule, the EC50 is about 2.3-fold lower.

B3: 1CP-117 (antibody, human IgG1, kappa, V domains shown)
VH: QVQLVQSGSELKKPGASVKVSCKASGYTLTDFSMHWVRQAPGQGLEWMGWINTETGAPTYADDFKGRFVLSLDTSVSTAYLQISSLKAEDTAVYYCSRGRDYDPHFDYWGQGTLVTVSS
VL: EIVLTQSPATLSLSPGERATLSCRASQSISDFLHWYQQKPGQSPRLLIKYASQSISGIPARFSGSGSGSDFTLTISSVEPEDFAVYYCQSAHSFPYTFGQGTKLEIKR
notes: humanized 8E5, human IgG1 kappa
B3 showed an EC50 in assay [2] of 1.3 nM. Further, binding with MsCDCP1 was characterised by a dissociation constant (Kd) of 212 nM.

B4: 1CP-121 (antibody, human IgG1, kappa, V domains shown)
VH: QVQLVQSGSELKKPGASVKVSCKASGYTLTDFSMHWVRQAPGQGLEWMGWINTETGAPTYADDFKGRFVLSLDTSVSTAYLQISSLKAEDTAVYYCSRGRDYDPHFDYWGQGTLVTVSS
VL: EIVLTQSPATLSLSPGERATLSCRASQSISDFLHWYQQKSGQSPRLLIKYASQSISGIPARFSGSGSGSDFTLTISSVEPEDFAVYYCQSAHSFPYTFGQGTKLEIKR
notes: as for B3
Turning to B4, in assay [2], the EC50 came to 1.37 nM. Binding with MsCDCP1 was put at a Kd of 141 nM.

B5: 5B8 (antibody, V domains shown)
VH: EVQLKESGGGLVQPGGSLRISCATSGLTFTHYHMSWVRQPPGKAPEWLAIIRNKAYGYTTDYSASVRGRFTISRDDSQSILYLQMNTLRAEDSATYYCVREGGYGYDGTFAYWGQGTTVTVSS
VL: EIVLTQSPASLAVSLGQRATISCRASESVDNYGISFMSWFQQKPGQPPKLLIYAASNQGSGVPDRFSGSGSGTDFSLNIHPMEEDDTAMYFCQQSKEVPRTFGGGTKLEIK
notes: murine hybridoma mAb
As for B5, the response in assay [1] was half-maximal at 0.91 nM (EC50).

B6: 8C9 (antibody, V domains shown)
VH: EVQLKESGGGLVQPGGSLRISCATSGLTFTHYHMSWVRQPPGKAPEWLAIIRNKAYGYTTDYSASVRGRFTISRDDSQSILYLQMNTLRPEDSATYYCVREGGYGYDGTFAYWGQGTTVTVSS
VL: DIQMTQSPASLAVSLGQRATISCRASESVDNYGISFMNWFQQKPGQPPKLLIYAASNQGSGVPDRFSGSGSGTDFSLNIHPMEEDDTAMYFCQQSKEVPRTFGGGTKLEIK
notes: murine hybridoma mAb
In turn, B6 showed an EC50 in assay [1] of 0.4 nM.

B7: 10D2 (antibody, V domains shown)
VH: EVQLQQSGPELKKPGETVKISCKASGYTFTDYSMHWVKQAPGKGLKWMGWINTETGQPTYADDFKGRFAFSLETSASSAYLQINNLKNEDTATYFCTRTFYYDYVGDYWGQGTTVTVSS
VL: DIVMTQSHKFMSTSVGDRVSITCKASQDVSTAVAWYRQKPGQSPKLLIYWASTRHTGVPDRLTGSGSGTDFALTINSVQAEDLALYYCQQHSSTPYTFGGGTKLEIK
notes: murine hybridoma mAb
In the case of B7, the EC50 in assay [1] turned out to be 2.54 nM.

B8: 3C11 (antibody, V domains shown)
VH: EVQLQQSGTVLARPGASVKMSCKASGYNFISYWLHWIKQRPGQGLEWIGGIYPGNTDTTYNQKFKGKAKVTAVTSATTAYMELSSLTNEDSAVYYCIRYDYDRGMDYWGQGTTVTVSS
VL: DIQMTQSPSSFSVSLGDRVTITCRASEDIYYRLAWYQQKPGNAPRLLISGATALETGVPSRFSGSGSGKDYTLSITSLQTEDVATYYCQHYWNIPWTFGGGTKLEIK
notes: murine hybridoma mAb
As for B8, the midpoint of the response in assay [1], the EC50, lay at 0.23 nM. This EC50 lies about 11-fold lower than the previous one.

B9: 3B12H5 (antibody, V domains shown)
VH: EVQLQQSGTVLARPGASVKMSCKASGYSFTIYWVHWVKQRPGQGLEWIGAVYPGNDDTSYNQNFKGKAKLTAVTSATTAYMELSSLTIDDSAVYYCTRHTYDEVFDYWGQGTTVTVSS
VL: DIVMTQSPSSLSVSLGDRVTITCKASEDIYYRLAWYQQKPGNAPRLLISGGTNLEAGIPSRFSGSGSGKDYTLSITSLQTEDVAIYYCQHYWNTPWTFGGGTKLEIK
notes: murine hybridoma mAb; also called 3B12HS
Consider B9, for which the response in assay [1] was half-maximal at 0.55 nM (EC50).

B10: 6A7 (antibody, V domains shown)
VH: EVQLKESGAELVRPGASVKVSCKASGYSFTSYWMNWVKQRPGQGLEWIGMIHPSDSETKLNQKFRDRASLTVDKSSSTAYMQLSSPTSEDSAVYYCTINYESFYYAMDYWGQGTTVTVSS
VL: DIVMTQSPASLAVSLGQRATISCRASKSVSTSGYSYMHWYQQKPGQPPKLLLYLASNLESGVPARFSGSGSGADFTLNIHPVEEEDAATYYCLHSRELPYTFGGGTKLEIK
notes: murine hybridoma mAb
In turn, B10 gave an EC50 in assay [1] of 1.35 nM.

B11: 3F1A11 (antibody, V domains shown)
VH: EVKLVESGPGLVKPSQSLSLTCTVTGYSITSDYAWNWIRQFPGNKLEWMGYISYNTYTSYNPSLKSRISVTRDTSKNQFFLQLKSVTIEDTATYFCAGGDYYGTGAVDYWGQGTTVTVSS
VL: EIVLTQSPLSLPVSLGDQASISCRSRQTLVHTNGNTYLDWYLQKPGQSPKLLIYKVSIRFSGVPDRFSGSRSGTDFTLKISRVEAEDLGIYYCFQGSHVPWTFGGGTKLEIK
notes: murine hybridoma mAb
The molecule B11 had an EC50 in assay [1] of 0.41 nM.

B12: 8E5 (antibody, V domains shown)
VH: EVQLKESGPELKKPGETVKISCKASGYTLTDFSMHWLKQAPGKGLKWMGWINTETGAPTYADDFKGRFALSLDTSANTAYLQINNLKNEDTATYFCSRGRDYDPHFDYWGQGTTVTVSS
VL: EIVLTQSPATLSVTPGDRVSLSCRASQSISDFLHWYQQRSHESPRLLIKYASQSISGIPSRFGGSGSGSDFTLNINTVEPEDVGMYYCQSAHSFPYTFGGGTKLEIK
notes: murine hybridoma mAb; also called 8ES
As to B12, the EC50 in assay [1] was found to be 0.63 nM.

B13: 12E6 (antibody, V domains shown)
VH: EVQLKESGPGILQPSQTLSLTCSFSGFSLSTSGMGVGWIRQPSGKGLEWLAHIWWDDVKLYNPALKSRLTISKETSNNQVFLKIASVDAADTATYYCARIDHGYGSNYWDFDVWGAGTTVTVSS
VL: DIVMTQAAPSVPVTPGGSVSISCRSTKSLLHSDGKTYLYWFLQRPGQSPQLLIYRMSNLASGVPDRFSGSGSGTAFTLRISRVEAEDVGVYYCMQHLEYPFTFGSGTKLEIK
notes: murine hybridoma mAb
Molecule B13 displayed an EC50 in assay [1] of 10.1 nM. This EC50 lies about 16-fold higher than the previous one.

B14: 1CP-124 (antibody, human IgG1, kappa, V domains shown)
VH: QVQLVQSGAEVKKPGASVKVSCKASGYNFISYWLHWVRQAPGQGLEWMGGIYPGNTDTTYNQKFKGRVTMTRDTSTSTVYMELSSLRSEDTAVYYCIRYDYDRGMDYWGQGTLVTVSS
VL: DIQMTQSPSSLSASVGDRVTITCRASEDIYYRLAWYQQKPGKAPKLLISGATALETGVPSRFSGSGSGKDYTFTISSLQPEDIATYYCQHYWNIPWTFGQGTKVEIKR
notes: humanized 3C11, human IgG1 kappa
With B14, in assay [2], a half-maximal response (EC50) required 0.38 nM. Further, in the assay with MsCDCP1, the Kd – broadly, the equilibrium constant for the complex coming apart – stood at 274 nM.

Source of the values: patent publication US20260250410A1 (SICHUAN HUIYU PHARMACEUTICAL, published 2026).
